# Measured values: PMC2408619
# Target: T1, Bordetella bacteriophage major tropism determinant variant Mtd-P1 (Bordetella bacteriophage BPP-1), Q775D6
# T1 chain: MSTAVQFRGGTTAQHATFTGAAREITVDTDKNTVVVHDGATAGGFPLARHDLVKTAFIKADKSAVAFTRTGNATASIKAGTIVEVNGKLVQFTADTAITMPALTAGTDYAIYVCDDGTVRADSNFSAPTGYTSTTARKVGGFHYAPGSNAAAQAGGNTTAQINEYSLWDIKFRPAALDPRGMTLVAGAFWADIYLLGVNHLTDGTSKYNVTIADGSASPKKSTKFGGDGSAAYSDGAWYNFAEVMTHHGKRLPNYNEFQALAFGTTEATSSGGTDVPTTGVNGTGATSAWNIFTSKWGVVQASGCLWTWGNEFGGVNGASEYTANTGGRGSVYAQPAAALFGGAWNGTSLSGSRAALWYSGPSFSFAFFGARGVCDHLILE
# Test: crystal structure; Mtd-P1·Prn-E complex formed with ~1.6-fold molar excess of Mtd-P1 trimers over His-tagged Prn-E, isolated by Ni2+-chelation and Superdex 200; crystals at 25 °C in 2 M NaCl, 100 mM Tris pH 8.5, 200 mM Li2SO4; 3.16 Å
# Details: remark: other sources report otherwise
binder,measurement,value
"Bordetella bacteriophage major tropism determinant variant Mtd-P1, Q775D6 1-381 (natural protein) MSTAVQFRGGTTAQHATFTGAAREITVDTDKNTVVVHDGATAGGFPLARHDLVKTAFIKADKSAVAFTRTGNATASIKAGTIVEVNGKLVQFTADTAITMPALTAGTDYAIYVCDDGTVRADSNFSAPTGYTSTTARKVGGFHYAPGSNAAAQAGGNTTAQINEYSLWDIKFRPAALDPRGMTLVAGAFWADIYLLGVNHLTDGTSKYNVTIADGSASPKKSTKFGGDGSAAYSDGAWYNFAEVMTHHGKRLPNYNEFQALAFGTTEATSSGGTDVPTTGVNGTGATSAWNIFTSKWGVVQASGCLWTWGNEFGGVNGASEYTANTGGRGSVYAQPAAALFGGAWNGTSLSGSRAALWYSGPSFSFAFFGARGVCDHLILE",stoichiometry N,3
